Measurements published in PMC9985635.

Target: p65 (UniProt Q04206)
Assay: co-immunoprecipitation, immunoblot
Conditions: reference: wild-type RB; sites S249,T252

- binding against the reference: weaker
Substance: RB (retinoblastoma protein) (from UniProt P06400) RB S249A/T252A
